Target: HLA-A*02:01 (Homo sapiens, UniProt P04439, D140Y/D185E/D98H/E176V/E277Q/G131W/G231S/I119V/I121R/I166T/I218V/L300P/L318F/N151K/N90K/P208A/P217A/Q86G/Q94H/R138H/R169H/T345S)
Assay: MHC binding assay (UV-ligand exchange, beta2m ELISA, peptide exchange yield)
Conditions: binding to HLA-A*02:01 ranged by peptide exchange yield, β2m ELISA
Source text: Candidate peptides for T cell based therapies according to the present invention were further tested for their MHC binding capacity (affinity). The individual peptide-MHC complexes were produced by UV-ligand exchange, where a UV-sensitive peptide is cleaved upon UV-irradiation, and exchanged with the peptide of interest as analyzed. Only peptide candidates that can effectively bind and stabilize the peptide-receptive MHC molecules prevent dissociation of the MHC complexes. To determine the yield of the exchange reaction, an ELISA was performed based on the detection of the light chain (β2m) of stabilized MHC complexes. The assay was performed as generally described in Rodenko et al. (Rodenko et al., 2006).
96 well MAXISorp plates (NUNC) were coated over night with 2 ug/ml streptavidin in PBS at room temperature, washed 4× and blocked for 1 h at 37° C. in 2% BSA containing blocking buffer. Refolded HLA-A*02:01/MLA-001 monomers served as standards, covering the range of 15-500 ng/ml. Peptide-MHC monomers of the UV-exchange reaction were diluted 100 fold in blocking buffer. Samples were incubated for 1 h at 37° C., washed four times, incubated with 2 ug/ml HRP conjugated anti-μ2m for 1h at 37° C., washed again and detected with TMB solution that is stopped with […]. Absorption was measured at 450 nm. Candidate peptides that show a high exchange yield (preferably higher than 50%, most preferred higher than 75%) are generally preferred for a generation and production of antibodies or fragments thereof, and/or T cell receptors or fragments thereof, as they show sufficient avidity to the MHC molecules and prevent dissociation of the MHC complexes.
MHC class I binding scores. Binding of HLA-class I restricted peptides to HLA-A*02:01 was ranged by peptide exchange yield: ≥10%=+; ≥20%=++; ≥50=+++; >75%=++++

Substance | Peptide exchange (MHC class I binding score)
139 (SIDRNPPQL; listed as Homo sapiens) [compound 139] | “+++” (≥50=+++)
140 (SLLNPPETLNL; listed as Homo sapiens) [compound 140] | “+++” (≥50=+++)
141 (SLTEQVHSL; listed as Homo sapiens) [compound 141] | “+++” (≥50=+++)
142 (SLYGYLRGA; listed as Homo sapiens) [compound 142] | “+++” (≥50=+++)
144 (TAVALLRLL; listed as Homo sapiens) [compound 144] | “++” (≥20%=++)
145 (TTFPRPVTV; listed as Homo sapiens) [compound 145] | “+++” (≥50=+++)
146 (VLISGVVHEI; listed as Homo sapiens) [compound 146] | “+++” (≥50=+++)
147 (YAFPKAVSV; listed as Homo sapiens) [compound 147] | “++” (≥20%=++)
148 (YLHNQGIGV; listed as Homo sapiens) [compound 148] | “++” (≥20%=++)
149 (ILGTEDLIVEV; listed as Homo sapiens) [compound 149] | “+++” (≥50=+++)
150 (ALFQPHLINV; listed as Homo sapiens) [compound 150] | “++++” (>75%=++++)
151 (ALLDIIRSL; listed as Homo sapiens) [compound 151] | “++++” (>75%=++++)
152 (ALLEPEFILKA; listed as Homo sapiens) [compound 152] | “++++” (>75%=++++)
153 (ALPKEDPTAV; listed as Homo sapiens) [compound 153] | “+++” (≥50=+++)
154 (KVADLVLML; listed as Homo sapiens) [compound 154] | “+++” (≥50=+++)

Continued, values first:

Peptide exchange (MHC class I binding score) | Substance
“+++” (≥50=+++) | 155 (LLLDPDTAVLKL; listed as Homo sapiens) [compound 155]
“+++” (≥50=+++) | 156 (LLLPPPPCPA; listed as Homo sapiens) [compound 156]
“+++” (≥50=+++) | 157 (MLLEIPYMAA; listed as Homo sapiens) [compound 157]
“++++” (>75%=++++) | 158 (SLIEKYFSV; listed as Homo sapiens) [compound 158]
“+++” (≥50=+++) | 159 (SLLDLHTKV; listed as Homo sapiens) [compound 159]
“++++” (>75%=++++) | 160 (VLLPDERTISL; listed as Homo sapiens) [compound 160]
“+++” (≥50=+++) | 161 (YLPDIIKDQKA; listed as Homo sapiens) [compound 161]
